From US20260022396A1, “GENETIC CIRCUITS” (FONDAZIONE TELETHON ETS, priority 2022, published 2026)

Tests used:
Type in all cases: cell-based, human
[1] = tested on: Gaussia Luciferase (gLuc) transcripts in HEK293 cells; assay: Mutual inhibition CasRx / gLuc transcripts with no, one or four DR (Example 13)
Description: In order to confirm the mechanism of inhibition mediated by the output species “Z” on the repressor species “Y” in genetic circuits according to preferred embodiments of the invention, HEK293 cells were co-transfected with CasRx endoribonuclease (species Y) and Gaussia Luciferase (gLuc) transcripts, the latter bearing in the 3′UTR either no Direct Repeat (DR), one DR, or four tandem DR motifs (4×DRs). The hypothesis tested was that upon CasRx binding, only one DR motifs would effectively contribute to transcript cleavage and subsequent degradation. Therefore, in transcripts bearing multiple DR motifs, the remaining DR motifs, not contributing to transcript cleavage, would act as decoys, sequestering active CasRx from the unbound pool. As a result, the CasRx repression efficacy on gLuc expression should decrease.
The luciferase emission of each sample was measured to quantify the expression of the gLuc at increasing amounts of co-transfected plasmid encoding the CasRx. […] (FIG. 25). Increasing the amount of DR copies in the 3′UTR thus enhances the “sponge” effect, inhibiting the cleavage efficacy of CasRx.

[2] = tested on: Gaussia luciferase transcript harboring a Direct Repeat in its 3′UTR, HEK293T cells; assay: CasRx repression of Gaussia luciferase reporter with or without Direct Repeat (Example 2)
Description: Luciferase assay. The cells were collected 48 hours after transfection and lysed with 25 μL of 5×Passive Lysis Buffer ([…]) diluted in water. Firefly Luciferase and Renilla Luciferase expression were measured using the Dual Luciferase Assay (Promega) on a Glomax Explorer plate reader (Promega). Firefly Luciferase Arbitrary Units (fLuc [A.U.]) were calculated by normalizing each sample's Firefly Luciferase activity to the constitutive Renilla activity detected in the same sample. Relative fLuc [A.U.] values have been calculated by dividing each sample's Firefly Luciferase Arbitrary Units by the Firefly Luciferase Arbitrary Units of the sample with no Doxycycline induction, in the case of Doxycycline dose-response curves. […] Luciferase activity was measured using Pierce™ Gaussia-Firefly Luciferase Dual Assay Kit (ThermoFisher Scientific) according to the manufacturer's instructions.
The findings of Example 1 were further confirmed by transfecting HEK293T cells with an increasing molar ratio of a plasmid encoding a Gaussia luciferase reporter gene, with or without Direct Repeats in its 3′UTR and a plasmid encoding the CasRx endoribonuclease. […] At least, three biological replicates were analyzed for each condition. Relative gLuc A.U. is calculated as the ratio between the gLuc A.U. values obtained transfecting the CasRx against the one which wasn't; this last corresponds to 1 gLuc A.U.

[3] = tested on: mCherry expression in HEK293T cells; assay: pCMV/TO repression by rtTA-VPR, mCherry positive cells by flow cytometry (Example 1); conditions: presence of doxycycline (1000 ng/ml), rtTA-VPR co-transfected
Description: Flow Cytometry. Cells were collected 48 hours after transfection, washed and resuspended with PBS (Euroclone). Flow Cytometry analysis were carried out using an Accuri C6 (BD Biosciences), analyzing 10000 cells for each sample. A 488-nm laser with a 670 nm LP filter were used to excite and detect mCherry fluorescence.
HEK293T cells were transfected with a plasmid encoding the pCMV/TO promoter driving the expression of the fluorescent protein mCherry, and with a plasmid encoding the rtTA-VPR transcription factor driven by the strong constitutive pCMV promoter. A condition treated in the same way but without rtTA-VPR transfection was used as a negative control to account for any doxycycline treatment bias on mCherry expression. The percentage of mCherry positive cells was quantified through flow cytometry analysis in the absence and presence (1000 ng/ml) of doxycycline. The results of this experiment are shown in FIG. 3, where it can be appreciated that pCMV/TO efficiently represses the expression of the mCherry almost 25 times at the transcriptional level in the presence of doxycycline. pCMV/TO is efficiently repressed by the rtTA-VPR in the presence of doxycycline. Percentual mean values of at least three biological replicates are shown. Error bars indicate standard error.

[4] = tested on: Firefly Luciferase driven by CMV/2B promoter in HEK293T cells; assay: CMV/2B promoter repression by VPR-dCas9-N8 and gRNA_B, Luc assay (Example 12); conditions: VPR-dCas9-N8 with gRNA_B vs scramble gRNA_AB
Description: Luciferase assay. The cells were collected 48 hours after transfection and lysed with 25 μL of 5×Passive Lysis Buffer ([…]) diluted in water. Firefly Luciferase and Renilla Luciferase expression were measured using the Dual Luciferase Assay (Promega) on a Glomax Explorer plate reader (Promega). Firefly Luciferase Arbitrary Units (fLuc [A.U.]) were calculated by normalizing each sample's Firefly Luciferase activity to the constitutive Renilla activity detected in the same sample. Relative fLuc [A.U.] values have been calculated by dividing each sample's Firefly Luciferase Arbitrary Units by the Firefly Luciferase Arbitrary Units of the sample with no Doxycycline induction, in the case of Doxycycline dose-response curves. In the case of Shield1 treatment, Relative fLuc [A.U.] values have been obtained by dividing each sample's Firefly Luciferase Arbitrary Units by the Firefly Luciferase Arbitrary Units of the sample treated with the maximum dose of Shield1 used, 1000 nM. Regarding experiments comprising Gaussia Luciferase and RedFireFly Luciferase, cells expressing those luciferases were harvested 48 h after transfection. Cells were disrupted with 100 μL/well of 1×Cell Lysis buffer and shaken for 15 min. Luciferase activity was measured using Pierce™ Gaussia-Firefly Luciferase Dual Assay Kit (ThermoFisher Scientific) according to the manufacturer's instructions. […]

B1: CasRx: CRISPR-Cas RNase derived from Ruminococcus flavefaciens, SEQ ID NO: 2 (protein)
chain: IEKKKSFAKGMGVKSTLVSGSKVYMTTFAEGSDARLEKIVEGDSIRSVNEGEAFSAEMADKNAGYKIGNAKFSHPKGYAVVANNPLYTGPVQQDMLGLKETLEKRYFGESADGNDNICIQVIHNILDIEKILAEYITNAAYAVNNISGLDKDIIGFGKFSTVYTYDEFKDPEHHRAAFNNNDKLINAIKAQYDEFDNFLDNPRLGYFGQAFFSKEGRNYIINYGNECYDILALLSGLRHWVVHNNEEESRISRTWLYNLDKNLDNEYISTLNYLYDRITNELTNSFSKNSAANVNYIAETLGINPAEFAEQYFRFSIMKEQKNLGFNITKLREVMLDRKDMSEIRKNHKVFDSIRTKVYTMMDFVIYRYYIEEDAKVAAANKSLPDNEKSLSEKDIFVINLRGSFNDDQKDALYYDEANRIWRKLENIMHNIKEFRGNKTREYKKKDAPRLPRILPAGRDVSAFSKLMYALTMFLDGKEINDLLTTLINKFDNIQSFLKVMPLIGVNAKFVEEYAFFKDSAKIADELRLIKSFARMGEPIADARRAMYIDAIRILGTNLSYDELKALADTFSLDENGNKLKKGKHGMRNFIINNVISNKRFHYLIRYGDPAHLHEIAKNEAVVKFVLGRIADIQKKQGQNGKNQIDRYYETCIGKDKGKSVSEKVDALTKIITGMNYDQFDKKRSVIEDTGRENAEREKFKKIISLYLTVIYHILKNIVNINARYVIGFHCVERDAQLYKEKGYDINLKKLEEKGFSSVTKLCAGIDETAPDKRKDVEKEMAERAKESIDSLESANPKLYANYIKYSDEKKAEEFTRQINREKAKTALNAYLRNTKWNVIIREDLLRIDNKTCTLFRNKAVHLEVARYVHAYINDIAEVNSYFQLYHYIMQRIIMNERYEKSSGKVSEYFDAVNDEKKYNDRLLKLLCVPFGYCIPRFKNLSIEALFDRNEAAKFDKEKKKVSGNS
For B1, the “decrease of gLuc expression” value ([1]; transcript having one DR, increasing amount of co-transfected CasRx) was about 2 log, the luciferase values ([1]; transcript with 4×DRs, presence of CasRx) was “higher luciferase values in the presence of CasRx compared to a single DR” and the “post-transcriptional inhibition of luciferase expression” value ([2]; 10 times molar excess of CasRx) was about 200 folds. For the same molecule, the “expression of Gaussia luciferase with DR in 3′UTR” value ([2]; equimolar amount of plasmid encoding CasRx, relative to no CasRx) was 5%.

B2: pCMV/TO: modified CMV promoter bearing two Tetracycline Operon (TO) sequences, SEQ ID NO: 8 (nucleic acid)
DNA: CGTTACATAACTTACGGTAAATGGCCCGCCTGGCTGACCGCCCAACGACCCCCGCCCATTGACGTCAATAATGACGTATGTTCCCATAGTAACGCCAATAGGGACTTTCCATTGACGTCAATGGGTGGAGTATTTACGGTAAACTGCCCACTTGGCAGTACATCAAGTGTATCATATGCCAAGTACGCCCCCTATTGACGTCAATGACGGTAAATGGCCCGCCTGGCATTATGCCCAGTACATGACCTTATGGGACTTTCCTACTTGGCAGTACATCTACGTATTAGTCATCGCTATTACCATGGTGATGCGGTTTTGGCAGTACATCAATGGGCGTGGATAGCGGTTTGACTCACGGGGATTTCCAAGTCTCCACCCCATTGACGTCAATGGGAGTTTGTTTTGGCACCAAAATCAACGGGACTTTCCAAAATGTCGTAACAACTCCGCCCCATTGACGCAAATGGGCGGTAGGCGTGTACGGTGGGAGGTCTATATAAGCAGAGCTCTCCCTATCAGTGATAGAGATCTCCCTATCAGTGATAGAGA
In the case of B2, the “repression of mCherry expression” value [3] is reported as about 25 times.

B3: CMV/2B: CMV promoter with gRNA_B binding sites downstream of the TATA box, repressed by VPR-dCas9-N8, SEQ ID NO: 48 (nucleic acid)
DNA: CGTTACATAACTTACGGTAAATGGCCCGCCTGGCTGACCGCCCAACGACCCCCGCCCATTGACGTCAATAATGACGTATGTTCCCATAGTAACGCCAATAGGGACTTTCCATTGACGTCAATGGGTGGAGTATTTACGGTAAACTGCCCACTTGGCAGTACATCAAGTGTATCATATGCCAAGTACGCCCCCTATTGACGTCAATGACGGTAAATGGCCCGCCTGGCATTATGCCCAGTACATGACCTTATGGGACTTTCCTACTTGGCAGTACATCTACGTATTAGTCATCGCTATTACCATGGTGATGCGGTTTTGGCAGTACATCAATGGGCGTGGATAGCGGTTTGACTCACGGGGATTTCCAAGTCTCCACCCCATTGACGTCAATGGGAGTTTGTTTTGGCACCAAAATCAACGGGACTTTCCAAAATGTCGTAACAACTCCGCCCCATTGACGCAAATGGGCGGTAGGCGTGTACGGTGGGAGGTCTATATAAGCAGAGCTGCCGTCTTCCGTTTCCACATCTTCACGGATACCAAGGTGGCACCGGTTTGATTGCACAGCCCGTCTTCCGTTTCCACATCTTCACGG
B3 was tested, and the “percentage of repression of the CMV/2B” value [4] was “around 60%”.
